# Paper PMC9666628 (Nature Communications, 2022)
# T1: wild-type Cbx8 chromodomain (tags removed) (human, UniProt Q9HC52 8-61)
# T1 construct: chromodomain of human Cbx8; also called Cbx8.wt; source: E. coli BL21(DE3), purified (Ni-NTA; tags removed with TEV protease)
# T1 sequence: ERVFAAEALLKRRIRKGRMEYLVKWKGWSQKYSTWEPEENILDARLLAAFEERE
# T2: wild-type Cbx2 chromodomain (tags removed) (human, UniProt Q14781 9-62)
# T2 construct: chromodomain of human Cbx2; also called Cbx2.wt; source: E. coli BL21(DE3), purified (Ni-NTA; tags removed with TEV protease)
# T2 sequence: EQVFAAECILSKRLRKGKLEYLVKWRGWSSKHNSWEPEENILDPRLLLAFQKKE
# T3: Cbx7.V1 (tags removed, used for FP and ITC) (human, UniProt O95931 7-66, E8D (printed as the back-mutation D8E) | Q9D | V10I (printed as the …))
# T3 construct: chromodomain of human Cbx7 (Cbx7-chromo), UniProt O95931; source: E. coli BL21(DE3), purified (Ni-NTA; tags removed with TEV protease)
# T3 sequence: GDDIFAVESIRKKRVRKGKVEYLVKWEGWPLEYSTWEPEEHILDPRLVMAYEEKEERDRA
# T4: wild-type Cbx7 chromodomain (tags removed) (human, UniProt O95931 7-66)
# T4 construct: chromodomain of human Cbx7 (Cbx7-chromo), UniProt O95931; also called Cbx7.wt; source: E. coli BL21(DE3), purified (Ni-NTA; tags removed with TEV protease)
# T4 sequence: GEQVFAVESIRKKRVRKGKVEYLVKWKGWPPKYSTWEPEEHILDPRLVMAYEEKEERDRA
# T5: Cbx7.VD chromodomain, Q9D/K33E (tags removed) (human, UniProt O95931 7-66, Q9D | K33E)
# T5 construct: chromodomain of human Cbx7 (Cbx7-chromo), UniProt O95931; source: E. coli BL21(DE3), purified (Ni-NTA; tags removed with TEV protease)
# T5 sequence: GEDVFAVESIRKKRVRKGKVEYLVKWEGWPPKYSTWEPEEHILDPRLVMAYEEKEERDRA
# T6: Cbx7 Q9D chromodomain (tags removed) (human, UniProt O95931 7-66, Q9D)
# T6 construct: chromodomain of human Cbx7 (Cbx7-chromo), UniProt O95931; source: E. coli BL21(DE3), purified (Ni-NTA; tags removed with TEV protease)
# T6 sequence: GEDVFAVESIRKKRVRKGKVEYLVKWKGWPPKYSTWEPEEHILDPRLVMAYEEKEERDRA
# T7: Cbx7 K33E chromodomain (tags removed) (human, UniProt O95931 7-66, K33E)
# T7 construct: chromodomain of human Cbx7 (Cbx7-chromo), UniProt O95931; source: E. coli BL21(DE3), purified (Ni-NTA; tags removed with TEV protease)
# T7 sequence: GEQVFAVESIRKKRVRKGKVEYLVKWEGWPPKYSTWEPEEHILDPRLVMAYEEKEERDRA
# T8: Cbx7 Q9D (human, UniProt O95931 7-66, Q9D)
# T8 construct: chromodomain of human Cbx7 (UniProt O95931) with Q9D; source: E. coli BL21(DE3), purified (Ni-NTA); tags removed with TEV protease
# T8 sequence: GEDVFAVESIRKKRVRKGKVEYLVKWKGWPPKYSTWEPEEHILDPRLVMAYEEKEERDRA
# T9: Cbx7 K33E (human, UniProt O95931 7-66, K33E)
# T9 construct: chromodomain of human Cbx7 (UniProt O95931) with K33E; source: E. coli BL21(DE3), purified (Ni-NTA); tags removed with TEV protease
# T9 sequence: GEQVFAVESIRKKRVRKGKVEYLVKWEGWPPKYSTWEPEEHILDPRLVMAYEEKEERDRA
# T10: Cbx7.V1 (human, UniProt O95931 7-66, E8D (back-mutant printed as D8E) | Q9D (back-mutant printed as D9Q) | V10I …)
# T10 construct: also called Cbx7.5; source: E. coli BL21(DE3), purified (Ni-NTA); tags removed with TEV protease
# T10 sequence: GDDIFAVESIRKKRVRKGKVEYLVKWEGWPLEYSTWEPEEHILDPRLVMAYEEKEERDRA
# T11: Cbx7.V1 D9Q back-mutant (human, UniProt O95931 7-66, E8D (printed as the back-mutation D8E) | V10I (printed as the back-mutation …))
# T11 construct: chromodomain of human Cbx7, UniProt O95931; Cbx7.V1 with residue 9 back to the wild type; source: E. coli BL21(DE3), purified (Ni-NTA)
# T11 sequence: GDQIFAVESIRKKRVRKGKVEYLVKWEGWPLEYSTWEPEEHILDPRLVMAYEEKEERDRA
# T12: Cbx7.V1 E38K back-mutant (human, UniProt O95931 7-66, E8D (printed as the back-mutation D8E) | Q9D | V10I (printed as the …))
# T12 construct: chromodomain of human Cbx7, UniProt O95931; Cbx7.V1 with residue 38 back to the wild type; source: E. coli BL21(DE3), purified (Ni-NTA)
# T12 sequence: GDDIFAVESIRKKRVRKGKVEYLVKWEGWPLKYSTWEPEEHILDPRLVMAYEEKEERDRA
# T13: Cbx7.V1 E33K back-mutant (human, UniProt O95931 7-66, E8D (printed as the back-mutation D8E) | Q9D | V10I (printed as the …))
# T13 construct: chromodomain of human Cbx7, UniProt O95931; Cbx7.V1 with residue 33 back to the wild type; source: E. coli BL21(DE3), purified (Ni-NTA)
# T13 sequence: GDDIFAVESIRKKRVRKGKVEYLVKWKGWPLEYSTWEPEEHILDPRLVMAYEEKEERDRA
# T14: Cbx7.V1 D8E back-mutant (human, UniProt O95931 7-66, Q9D | V10I (printed as the back-mutation I10V) | K33E | P37L (printed as the …))
# T14 construct: chromodomain of human Cbx7, UniProt O95931; Cbx7.V1 with residue 8 back to the wild type; source: E. coli BL21(DE3), purified (Ni-NTA)
# T14 sequence: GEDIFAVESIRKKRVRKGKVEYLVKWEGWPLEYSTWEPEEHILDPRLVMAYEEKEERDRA
# T15: Cbx7.V1 I10V back-mutant (human, UniProt O95931 7-66, E8D (printed as the back-mutation D8E) | Q9D | K33E | P37L (printed as the …))
# T15 construct: chromodomain of human Cbx7, UniProt O95931; Cbx7.V1 with residue 10 back to the wild type; source: E. coli BL21(DE3), purified (Ni-NTA)
# T15 sequence: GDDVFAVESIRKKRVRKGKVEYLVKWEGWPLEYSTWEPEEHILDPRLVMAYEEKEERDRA
# T16: Cbx7.V1 L37P back-mutant (human, UniProt O95931 7-66, E8D (printed as the back-mutation D8E) | Q9D | V10I (printed as the …))
# T16 construct: chromodomain of human Cbx7, UniProt O95931; Cbx7.V1 with residue 37 back to the wild type; source: E. coli BL21(DE3), purified (Ni-NTA)
# T16 sequence: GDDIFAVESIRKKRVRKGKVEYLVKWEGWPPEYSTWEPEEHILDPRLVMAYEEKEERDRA
# T17: Cbx7.V1 (His6- and Flag-tagged construct, used for BLI) (human, UniProt O95931 7-66, E8D (printed as the back-mutation D8E) | Q9D | V10I (printed as the …))
# T17 construct: chromodomain of human Cbx7 (Cbx7-chromo), UniProt O95931; removal of the tags is told only for FP and ITC; source: E. coli BL21(DE3), purified (Ni-NTA)
# T17 sequence: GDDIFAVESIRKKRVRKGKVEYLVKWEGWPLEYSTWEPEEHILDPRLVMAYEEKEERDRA
# Key:
# Settings in all cases: both partners purified
# [1] = target: T1, wild-type Cbx8 chromodomain (tags …); assay: fluorescence polarisation; 0.5 nM FITC-labelled peptide; chromodomains 200-0.2 µM (wild type) or 50 µM-50 nM (Cbx7.V1 and all Cbx.VDs); 30 min at 25 °C; 25 mM HEPES pH 7.5, 150 mM NaCl, 1 mM DTT, 0.01% TritonX-100; one-site total binding model
# [2] = target: T2, wild-type Cbx2 chromodomain (tags …); assay: as above
# [3] = target: T3, Cbx7.V1 (tags removed, used for FP and …); assay: as above
# [4] = target: T4, wild-type Cbx7 chromodomain (tags …); assay: as above
# [5] = target: T5, Cbx7.VD chromodomain, Q9D/K33E (tags …); assay: as above
# [6] = target: T6, Cbx7 Q9D chromodomain (tags removed); assay: as above
# [7] = target: T7, Cbx7 K33E chromodomain (tags removed); assay: as above
# Cbx7 Q9D = target: T8, Cbx7 Q9D; assay: fluorescence polarisation; 0.5 nM FITC-labeled peptide, chromodomain serially diluted (wild type 200-0.2 µM; Cbx7.V1 50 µM-50 nM); 25 mM HEPES pH 7.5, 150 mM NaCl, 1 mM DTT, 0.01% TritonX-100; 30 min at 25 °C; one-site total binding model
# Cbx7 K33E = target: T9, Cbx7 K33E; assay: as above
# Cbx7.V1 = target: T10, Cbx7.V1; assay: as above
# [8] = target: T3, Cbx7.V1 (tags removed, used for FP and …); assay: ITC; peptides (1.2-2 mM, syringe) titrated into Cbx7.V1 (70-112 µM, cell); 25 °C; PBS pH 7.4, 1 mM TCEP; one-site binding model
# Cbx7.V1 D9Q back-mutant = target: T11, Cbx7.V1 D9Q back-mutant; assay: BLI; biotinylated peptides immobilised on streptavidin biosensor tips (Octet HTX); chromodomains in solution at 5 or 1 µM; 25 °C; 25 mM HEPES pH 7.0, 150 mM NaCl, 1 mg/ml BSA, 0.01% Tween-20; steady-state fit, Langmuir model
# Cbx7.V1 E38K back-mutant = target: T12, Cbx7.V1 E38K back-mutant; assay: as above
# Cbx7.V1 E33K back-mutant = target: T13, Cbx7.V1 E33K back-mutant; assay: as above
# Cbx7.V1 D8E back-mutant = target: T14, Cbx7.V1 D8E back-mutant; assay: as above
# Cbx7.V1 I10V back-mutant = target: T15, Cbx7.V1 I10V back-mutant; assay: as above
# Cbx7.V1 L37P back-mutant = target: T16, Cbx7.V1 L37P back-mutant; assay: as above
# [9] = target: T17, Cbx7.V1 (His6- and Flag-tagged …); assay: as above
Binder,Kd (Cbx7 Q9D) [µM],Kd (Cbx7 K33E) [µM],Kd (Cbx7.V1) [µM],Kd [8] [µM],stoichiometry N [8],Kd (Cbx7.V1 D9Q back-mutant) [µM],Kd (Cbx7.V1 E38K back-mutant) [µM],Kd (Cbx7.V1 E33K back-mutant) [µM],Kd (Cbx7.V1 D8E back-mutant) [µM],Kd (Cbx7.V1 I10V back-mutant) [µM],Kd (Cbx7.V1 L37P back-mutant) [µM],Kd [9] [µM],further results
"KQLATKAARKSAPATGGVK (trimethyl-lysine at K27; fluorescein isothiocyanate (FITC) at the N-terminus) [H3K27me3 peptide, N-terminal FITC]",–,–,–,–,–,–,–,–,–,–,–,–,Kd [1]: > 200 µM; Kd [2]: 100 µM; Kd [3]: 4 µM; Kd [4]: 110 µM; Kd [5]: 5 µM; Kd [6]: 100 µM; Kd [7]: 20 µM
"KQLATKAARKSAPATGGVK (trimethyl-lysine at K27; biotin followed by an aminohexanoic acid linker at the N-terminus) [H3K27me3 peptide, N-terminal biotin]",–,–,–,7.8,~1,2,1.5,> 20,2,2,2.5,2,–
"ARTKQTARKSTGGKAPR (trimethyl-lysine at K9; biotin followed by an aminohexanoic acid linker at the N-terminus) [H3K9me3 peptide, N-terminal biotin]",–,–,–,7,~1,> 20,2,10,5,3.5,3,4.5,–

# Now from value to binder, other results behind:
Kd (Cbx7 Q9D) [µM],Kd (Cbx7 K33E) [µM],Kd (Cbx7.V1) [µM],Kd [8] [µM],stoichiometry N [8],Kd (Cbx7.V1 D9Q back-mutant) [µM],Kd (Cbx7.V1 E38K back-mutant) [µM],Kd (Cbx7.V1 E33K back-mutant) [µM],Kd (Cbx7.V1 D8E back-mutant) [µM],Kd (Cbx7.V1 I10V back-mutant) [µM],Kd (Cbx7.V1 L37P back-mutant) [µM],Kd [9] [µM],Binder,further results
12.3,18,7.2,–,–,–,–,–,–,–,–,–,"ARTKQTARKSTGGKAPR (trimethyl-lysine at K9 (Kme3); fluorescein isothiocyanate (FITC) on the N-terminus, histone H3 N-terminal tail, residues 1-17; source: synthetic peptide (GenScript)) [FITC-labeled H3K9me3 peptide]",–
97,17.5,4.2,–,–,–,–,–,–,–,–,–,"KQLATKAARKSAPATGGVK (trimethyl-lysine at K27 (Kme3); fluorescein isothiocyanate (FITC) on the N-terminus, histone H3 tail, residues 18-36; source: synthetic peptide (GenScript)) [FITC-labeled H3K27me3 peptide]",–
